According to paper PMC10683472, “Deep Learning-Driven Library Design for the De Novo Discovery of Bioactive Thiopeptides” (ACS Central Science, 2023):

Target: T1, TLR10 (Homo sapiens, UniProt Q9BXR5)
T1 sequence (Q9BXR5 20-576): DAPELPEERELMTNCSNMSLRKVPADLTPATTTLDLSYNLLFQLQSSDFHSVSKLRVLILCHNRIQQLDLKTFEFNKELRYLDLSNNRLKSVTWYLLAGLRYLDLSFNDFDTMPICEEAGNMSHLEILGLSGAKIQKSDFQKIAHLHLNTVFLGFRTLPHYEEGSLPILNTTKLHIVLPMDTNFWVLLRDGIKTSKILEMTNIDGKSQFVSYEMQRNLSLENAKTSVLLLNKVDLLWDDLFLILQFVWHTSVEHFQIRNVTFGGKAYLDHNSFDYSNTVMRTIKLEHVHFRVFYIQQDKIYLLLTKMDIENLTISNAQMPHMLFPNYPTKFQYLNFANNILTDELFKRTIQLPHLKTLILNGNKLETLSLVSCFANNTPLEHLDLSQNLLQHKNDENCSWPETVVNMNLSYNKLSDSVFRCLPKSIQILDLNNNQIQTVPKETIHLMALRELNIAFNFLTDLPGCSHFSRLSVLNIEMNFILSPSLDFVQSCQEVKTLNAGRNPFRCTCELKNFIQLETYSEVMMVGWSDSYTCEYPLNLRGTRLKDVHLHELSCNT
Assay: mRNA display affinity selection against TLR10, NGS abundance
Assay type: binding
Parameters: Chimera protein (extracellular domain, amino acid 20-576;); Fc (chimera); purchased R&D system #6619-TR-050
Conditions: Top100 selection hits, NGS

Library fraction (TLR10 selection pulldown (+))	Raw reads (TLR10 selection pulldown (+))	Library fraction (TLR10 selection pulldown (-))	Raw reads (TLR10 selection pulldown (-))	Sequence
0.00137	134	0.0033	394	TILFSLQNVRAF
0.00017	17	–	–	SVIFNLLRQVAY
0.00047	46	–	–	SPIHFRSVL
–	–	0.00162	193	ALVTQHVNVY
0.168	16419	0.077	9156	SNIVWCGQGIIG
0.00056	55	–	–	CVLVNNRYLVH
0.00055	54	–	–	TIYFKLQKAVAL
0.00018	18	–	–	SIQFKVLQKLAF
0.00041	40	–	–	RILFPLQNSIAF
–	–	0.00067	80	ATIDLQLRRLTL
0.00035	34	–	–	SLETSHLVIY
–	–	0.00043	51	RSPIPSWG
–	–	0.00067	80	SIEFRRMRAIAY
0.038	3740	0.095	11292	TIRFTNQNKIAF
0.008	778	0.007	870	IGRVMIKSS
0.00018	18	–	–	FRGVLIRSS
–	–	0.003	343	SVEVWVNQKIRG
0.00022	21	–	–	SIEGMHVVIV
–	–	0.0008	96	IGNVCIRSS
0.00019	19	–	–	STLFFMFQGIRG
0.00046	45	–	–	SIKFVFQGKLAI
0.035	3411	0.010	1149	SVCVYQHQGIRG

Library fraction (TLR10 selection pulldown (+))	Raw reads (TLR10 selection pulldown (+))	Library fraction (TLR10 selection pulldown (-))	Raw reads (TLR10 selection pulldown (-))	Sequence
0.00024	23	–	–	GVRLNGVIFVSV
0.00021	20	–	–	SLETNSVVWI
0.00018	18	–	–	SMLLPMQRVVMF
–	–	0.00112	133	SITFPMQRHIAF
0.0008	78	–	–	STLIYKLQCILG
–	–	0.007	798	SKIIWSNQAIRG
–	–	0.00044	52	TLELKAIVFH
0.00034	33	–	–	SFMFFSQRKLAF
0.00049	48	–	–	ALELKHVVVV
–	–	0.00658	785	IGLVRVVSS
–	–	0.002	232	GLLHGNVPTWI
0.00044	43	–	–	SILFPHQQKLLF
–	–	0.00278	332	ALKFELLRKVAF
0.00061	59	0.00086	102	VGQVLVKSS
0.00237	231	0.00056	67	TYWKACAMSHIP
0.013	1282	0.018	2179	WPGSMARDSIS
0.00022	21	–	–	IGNTYVASS
0.004	409	0.001	116	STHIYSKQGIRG
0.003	304	0.00136	162	IGRLYIKSS
0.00063	61	–	–	SKQVYHKQTIVG
0.00033	32	–	–	TLELQSVVLH
